Experimental data: patent US7087392B2, “Antiproliferative SgK reagents and methods” (The Regents of the University of California, priority 1999, dated 2006)

What was measured:
mammary epithelial cells = experiment: Co-staining for ectopically expressed Sgk and apoptotic cells (TUNEL fluorescence assay); assay type: cell-based; conditions: after hyperosmotic stress, ectopic expression
mammary tumor cells = experiment: Transient cell foci growth assay of transfected mammary tumor cells; assay type: cell-based; conditions: transfected expression vector, G418 selection
Text: Functional evidence for a direct role of sgk in the glucocorticoid anti-proliferative pathway. In both the Con8 mammary epithelial tumor cells (from which Sgk was originally cloned) as well as human MCF-7 breast cancer cells (which were originally derived from a pleural effusion of a metastatic human breast adenocarcinoma) glucocorticoids induce a G1 block in cell cycle progression and strongly stimulate sgk transcript and protein production. […] To initially test whether Sgk has an anti-proliferative function and perhaps mediates the glucocorticoid growth inhibitory response, the full length rat or human wild type sgk cDNA was inserted downstream of the cytomegalovirus (CMV) promoter in an expression vector that also encodes the neomycin resistance gene. […] Transfection competent cells were selected in 0.5 mg/ml of the G418 neomycin derivative for two weeks.
Expression vectors encoding several point mutants or truncations of Sgk were transfected into the mammary tumor cells and cell growth monitored by the cell foci assay.
Transient transfection and rapid screen of the sgk expression vectors for the anti-proliferative response in rodent and human mammary tumor cells. A transient cell foci growth assay is employed to rapidly screen the various Sgk constructs to define the domains that mediate the anti-proliferative response in rat and human mammary tumor cells using our optimized conditions. The advantage of this assay is that many different mutant Sgk expression vectors can be simultaneously compared for their growth inhibitory effects. Also, this assay can be used to rapidly assess the proliferative effects of combinations of Sgk and its interacting proteins or substrates. Populations of human MCF-7 breast cancer cells or rat Con8 mammary tumor cells are transfected by the lipofectin transfection procedures and cultured in normally cytotoxic concentrations (750 μg/ml) of the G418 neomycin derivative to recover transfection competent cells. Approximately 5000 transfected cells are cultured as colonies on plastic, and after one to two weeks are fixed and stained in crystal violet/formalin to visualize the cell colonies. The effects on cell proliferation are quantitated by simply counting the resulting cell colonies or by scanning the total cell density on each plate. To provide a control for the fidelity of the cell foci assays, in each experiment, cells transfected with the control vectors (no Sgk sequences) are treated with or without 1 μM dexamethasone because the cells are growth suppressed by this synthetic glucocorticoid. […]

B1: K127M: Sgk with lysine 127 in the ATP binding domain substituted with methionine; kinase dead (protein, UniProt O00141 1-431, looked up, variant K127M)
Serine/threonine-protein …: MTVKTEAAKGTLTYSRMRGMVAILIAFMKQRRMGLNDFIQKIANNSYACKHPEVQSILKISQPQEPELMNANPSPPPSPSQQINLGPSSNPHAKPSDFHFLKVIGKGSFGKVLLARHKAEEVFYAVMVLQKKAILKKKEEKHIMSERNVLLKNVKHPFLVGLHFSFQTADKLYFVLDYINGGELFYHLQRERCFLEPRARFYAAEIASALGYLHSLNIVYRDLKPENILLDSQGHIVLTDFGLCKENIEHNSTTSTFCGTPEYLAPEVLHKQPYDRTVDWWCLGAVLYEMLYGLPPFYSRNTAEMYDNILNKPLQLKPNITNSARHLLEGLLQKDRTKRLGAKDDFMEIKSHVFFSLINWDDLINKKITPPFNPNVSGPNDLRHFDPEFTEEPVPNSIGKSPDSVLVTASVKEAAEAFLGFSYAPPTDSFL
In the case of B1, the “correlation between Sgk positive and TUNEL positive cells” value (mammary epithelial cells) is reported as roughly 55% and the “reduction in number of cell foci compared to the vector control” value (mammary tumor cells) is reported as roughly 2.5 fold.
